Source: patent US20240383982A1 (Genmab, published 2024)
One block for each binder: values may come before it.

What was measured:
[1] = molecular target: T1, human B7H4, full length, on cells (human, UniProt Q7Z7D3 25-282); experiment: flow cytometry on HCC1954 tumor cells [HCC1954 right panel]
T1 construct: Uniprot Q7Z7D3; Used for transfected HEK cells and for the B7H4-expressing human tumor cell lines (endogenous B7H4); also called VTCN1
T1 sequence: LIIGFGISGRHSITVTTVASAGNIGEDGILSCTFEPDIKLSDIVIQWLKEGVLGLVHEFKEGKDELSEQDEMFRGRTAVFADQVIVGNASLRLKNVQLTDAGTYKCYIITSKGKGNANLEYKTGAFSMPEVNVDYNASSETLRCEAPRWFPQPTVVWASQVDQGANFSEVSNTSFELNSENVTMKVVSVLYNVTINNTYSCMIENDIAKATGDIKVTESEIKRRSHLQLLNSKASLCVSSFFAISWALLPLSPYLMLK
Experimental: (§1) Cells (3×10⁴ cells/well) were incubated in polystyrene 96-well round-bottom plates (Greiner bio-one, cat. no. 650180) with serial dilutions of antibodies (ranging from 0.000458 to 30 μg/mL in 4-fold dilution steps) in 100 μL PBS/0.1% BSA/0.02% azide (staining buffer) at 4° C. for 30 min. Experiments were performed in technical duplicate. After washing twice in staining buffer, cells were incubated in 50 μL secondary antibody at 4° C. for 30 min. As a secondary antibody, R-Phycoerythrin (PE)-conjugated goat-anti-human IgG F(ab′)₂ (1:500 in FACS buffer; Jackson ImmunoResearch Laboratories, Inc., West Grove, PA, cat. no. 109-116-098), was used. Cells were washed twice in staining buffer, re-suspended in 30 μL FACS buffer containing Topro-3 (1:10,000 dilution) and analyzed on an iQue Screener (Intellicyt Corporation, USA). Binding curves were analyzed using non-linear regression (sigmoidal dose-response with variable slope) using GraphPad Prism V7.02 software (GraphPad Software, San Diego, CA, USA).
(§2) Binding was analyzed by flow cytometry as described above.

[2] = molecular target: T1, human B7H4, full length, on cells; experiment: flow cytometry on SK-BR3 tumor cells [panel SK-BR3 cells]
Experimental: as §1, §2

[3] = molecular target: T2, human recombinant His tagged B7H4 protein (Sino Biological cat. no. 10738-H08H) (human, UniProt Q7Z7D3 29-258); experiment: BLI (Octet HTX); antibody on anti-human IgG Fc capture sensor, human B7H4 ECD-His in solution; 2nd experiment (average of n = 3)
T2 construct: Bought protein; theoretical mass 26.8 kDa; also called human B7H4; human B7H4 extracellular domain
T2 sequence: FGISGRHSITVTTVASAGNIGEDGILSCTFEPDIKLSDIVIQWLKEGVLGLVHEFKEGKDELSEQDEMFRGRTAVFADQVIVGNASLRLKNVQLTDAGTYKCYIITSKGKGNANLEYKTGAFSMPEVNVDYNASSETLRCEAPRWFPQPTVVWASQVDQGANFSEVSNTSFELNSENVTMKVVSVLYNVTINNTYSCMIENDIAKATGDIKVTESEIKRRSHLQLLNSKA
Experimental: (§3) Target binding affinity of B7H4 antibodies was determined by label-free biolayer interferometry (BLI) on an Octet HTX instrument (FortéBio). Experiments were carried out while shaking at 1,000 RPM at 30° C. […] Anti-Human IgG Fc Capture (AHC) biosensors (FortéBio, cat. no. 18-5060) were pre-conditioned by exposure to 10 mM glycine (Sigma-Aldrich, cat. no. 15527) buffer pH 1.7 for 5 s, followed by neutralization in Sample Diluent (FortéBio, cat. no. 18-1048) for 5 s; both steps were repeated 2 times. Next, AHC sensors were loaded with antibody (1 μg/mL in Sample diluent) for 600 s. […] The theoretical molecular mass of human B7H4 and mouse B7H4 (as ECD-His tagged molecules) based on their amino acid sequences (26.8 kDa and 26.6 kDa respectively) were used for calculations. For each antibody a reference sensor was used, which was incubated with Sample Diluent instead of antigen. AHC sensors were regenerated by exposure to 10 mM glycine buffer pH 1.7 for 5 s, followed by neutralization in Sample Diluent for 5 s; both steps were repeated twice. Subsequently sensors were loaded again with antibody for the next cycle of kinetics measurements.
(§4) Data were acquired using Data Acquisition Software v9.0.0.49d (FortéBio) and analyzed with Data Analysis Software v9.0.0.12 (FortéBio). Data traces were corrected per antibody by subtraction of the reference sensor. The Y-axis was aligned to the last 10 s of the baseline, Interstep Correction alignment to dissociation and Savitzky-Golay filtering were applied. Data traces with a response<0.05 nm were excluded from analysis. The data was fitted with the 1:1 Global Full fit model using a window of interest for the association and dissociation times set at 300 s and 200 s respectively.

[4] = molecular target: T3, rat (Rattus norvegicus) B7H4, full length, on HEK-293F cells (rat, UniProt Q501W4 25-257); experiment: flow cytometry, HEK-293F cells transfected with rat B7H4 [panel Rat B7H4]
T3 construct: Uniprot Q501W4; also called rat B7H4
T3 sequence: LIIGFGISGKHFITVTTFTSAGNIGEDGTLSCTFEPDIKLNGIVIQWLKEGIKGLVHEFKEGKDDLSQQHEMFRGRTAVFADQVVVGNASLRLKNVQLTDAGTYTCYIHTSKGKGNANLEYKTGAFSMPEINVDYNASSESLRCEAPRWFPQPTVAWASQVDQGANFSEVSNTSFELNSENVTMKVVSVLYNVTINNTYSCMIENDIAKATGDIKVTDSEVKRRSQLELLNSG
Experimental: as §1

[5] = molecular target: T4, mouse B7H4 ECD-His (R&D Systems, cat. no. 2154-B7-050) (mouse, UniProt Q7TSP5 29-256); experiment: BLI (Octet HTX); antibody on anti-human IgG Fc capture sensor, mouse B7H4 ECD-His in solution; 2nd experiment
T4 construct: Bought ECD-His protein (26.6 kDa); also called mouse B7H4 extracellular domain
T4 sequence: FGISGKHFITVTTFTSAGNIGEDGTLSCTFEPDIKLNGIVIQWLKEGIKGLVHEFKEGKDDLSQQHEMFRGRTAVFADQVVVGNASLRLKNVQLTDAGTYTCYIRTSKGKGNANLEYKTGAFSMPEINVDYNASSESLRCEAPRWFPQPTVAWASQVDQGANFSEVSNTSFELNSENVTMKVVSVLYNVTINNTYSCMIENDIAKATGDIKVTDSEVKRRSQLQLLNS
Experimental: as §3, §4

B1: bsIgG1-huCD3-H101G-FEALxB7H4-C1-N52S-FEAR (bispecific antibody)
heavy 1: not shown
light 1: not shown
heavy 2: QVQLQQWGAGLLKPSETLSLTCAVYGGSFSGYYWSWIRQPPGKGLEWIGEISHSGSTNYNPSLKSRVTISIDTSKNQFSLKLTSVTAADTAVFYCARGLFNWNFDSWGQGTLVTVSSASTKGPSVFPLAPSSKSTSGGTAALGCLVKDYFPEPVTVSWNSGALTSGVHTFPAVLQSSGLYSLSSVVTVPSSSLGTQTYICNVNHKPSNTKVDKRVEPKSCDKTHTCPPCPAPEFEGGPSVFLFPPKPKDTLMISRTPEVTCVVVAVSHEDPEVKFNWYVDGVEVHNAKTKPREEQYNSTYRVVSVLTVLHQDWLNGKEYKCKVSNKALPAPIEKTISKAKGQPREPQVYTLPPSREEMTKNQVSLTCLVKGFYPSDIAVEWESNGQPENNYKTTPPVLDSDGSFFLYSRLTVDKSRWQQGNVFSCSVMHEALHNHYTQKSLSLSPGK
light 2: DIQMTQSPSSLSASVGDRVTITCRASQGIRNDLGWYQQKPGKAPKRLIYGASSLQSGVPSRFSGSGSGTEFTLTISSLQPEDFATYYCLQHNSYPRTFGQGTTVEIKRTVAAPSVFIFPPSDEQLKSGTASVVCLLNNFYPREAKVQWKVDNALQSGNSQESVTEQDSKDSTYSLSSTLTLSKADYEKHKVYACEVTHQGLSSPVTKSFNRGEC
notes: also called bslgG1-huCD3-H101G-FEALxB7H4-C1-N52S-FEAR; BslgG1-huCD3-H101G-FEALxB7H4-C1-N52S-FEAR
- EC50 (read off the curve) [1]: ~1 µg/mL
- EC50 (read off the curve) [2]: ~1 µg/mL

- Kd [3]: 57 nM
- koff [3]: 0.0047 s⁻¹
- kon [3]: 84000 M⁻¹ s⁻¹
B2: IgG1-B7H4-C1-N52S-FEAR (antibody, V domains shown)
VH: QVQLQQWGAGLLKPSETLSLTCAVYGGSFSGYYWSWIRQPPGKGLEWIGEISHSGSTNYNPSLKSRVTISIDTSKNQFSLKLTSVTAADTAVFYCARGLFNWNFDSWGQGTLVTVSS
VL: DIQMTQSPSSLSASVGDRVTITCRASQGIRNDLGWYQQKPGKAPKRLIYGASSLQSGVPSRFSGSGSGTEFTLTISSLQPEDFATYYCLQHNSYPRTFGQGTTVEIKR
notes: Full length human IgG1 with L234F, L235E, D265A, K409R (FEAR) heavy chain constant region and kappa light chain; bivalent, monospecific; also called IgG1-B7H4-C1-052S-FEAR

- binding result [4]: binds
- Kd [5]: 14 nM
- koff [5]: 0.0024 s⁻¹
- kon [5]: 170000 M⁻¹ s⁻¹
B3: IgG1-B7H4-C5-FEAR (antibody, V domains shown)
VH: QLQLQESGPGLVKPSETLSLTCTVSGGSIKSGSYYWGWIRQPPGKGLEWIGNIYYSGSTYYNPSLRSRVTISVDTSKNQFSLKLSSVTAADTAVYYCAREGSYPNQFDPWGQGTLVTVSS
VL: EIVMTQSPATLSVSPGERATLSCRASQSVSSNLAWYQQKPGQAPRLLIYGASTRATGIPARFSGSGSGTEFTLTISSLQSEDFAVYYCQQYHSFPFTFGGGTKVEIKR
notes: Full length IgG1 FEAR, kappa; variable domains from US20190085080A1
